Test results as given in publication PMC6335420, “The cell cycle regulator GpsB functions as cytosolic adaptor for multiple cell wall enzymes” (Nature Communications, 2019).
Where a chain is given by its changes, count along the chain named. Non-standard residues stand in square brackets, D forms with d. No end group written: not given here. fluorescein = fluorescein fluorescent label on the N-terminus; C(fluorescein) = cysteine carrying a fluorescein label; Nle = CCCC[C@H](N)C(=O)O

What was measured:
[1] = target: Fluorescein-LmPBPA11-20 Arg8AlaSer16Arg (L. monocytogenes EGD-e); assay: fluorescence polarisation
[2] = target: Fluorescein-LmPBPA11-20 Arg12Ala (L. monocytogenes EGD-e); assay: fluorescence polarisation
[3] = target: Fluorescein-LmPBPA11-20 wildtype (L. monocytogenes EGD-e); assay: fluorescence polarisation
[4] = target: Fluorescein-LmPBPA11-20 Arg8Ala (L. monocytogenes EGD-e); assay: fluorescence polarisation
[5] = target: TAMRA-SpPBP2a23-45 Arg33Lys (S. pneumoniae R6); assay: fluorescence polarisation
[6] = target: TAMRA-SpPBP2a23-45 Arg31Lys (S. pneumoniae R6); assay: fluorescence polarisation
[7] = target: TAMRA-SpPBP2a23-45 Ser32Ala (S. pneumoniae R6); assay: fluorescence polarisation
[8] = target: TAMRA-SpPBP2a23-45 Arg33Ala (S. pneumoniae R6); assay: fluorescence polarisation
[9] = target: Fluorescein-SpPBP2x1-29 (S. pneumoniae R6); assay: fluorescence polarisation
[10] = target: TAMRA-SpPBP2a23-45 Arg31LysArg33Lys (S. pneumoniae R6); assay: fluorescence polarisation
[11] = target: TAMRA-SpPBP2a23-45 Arg36Ala (S. pneumoniae R6); assay: fluorescence polarisation
[12] = target: TAMRA-SpPBP2a23-45 wildtype (S. pneumoniae R6); assay: fluorescence polarisation
BsGpsB [13] = target: T1, BsGpsB (Bacillus subtilis, UniProt P0CI74); assay: BACTH interaction with BsGpsB; format: cell-based; conditions: E. coli BTH101, nutrient agar, 30 °C
T1 construct: new FP data concerning full length BsGpsB have now been added to; made in house; host or cells: E. coli BL21(DE3)

SpGpsB_(1-63) = target: T2, SpGpsB_(1-63) (S. pneumoniae R6, UniProt Q8DR57 1-63); assay: fluorescence polarisation; conditions: both partners purified
T2 construct: GpsB, Streptococcus pneumoniae R6, residues 1-63 (stop codon in place of Pro64); also called N-terminal domain of SpGpsB; wildtype SpGpsB_(1-63); source: E. coli, purified (Ni-NTA, thrombin, ammonium sulphate precipitation, gel filtration)
T2 sequence (looked up): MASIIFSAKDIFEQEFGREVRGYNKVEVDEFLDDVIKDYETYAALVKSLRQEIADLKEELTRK

BsGpsB1-68 Tyr25Phe [14] = target: T3, BsGpsB1-68 Tyr25Phe (B. subtilis, UniProt P0CI74 1-68, Tyr25Phe); assay: fluorescence polarisation; conditions: both partners purified
T3 construct: GpsB, Bacillus subtilis, residues 1-68 (N-terminal domain); also called BsGpsB1-68 Y25F; source: E. coli BL21(DE3), purified (Ni-NTA, thrombin removal of the His6-tag, SEC); not shown: His6, N-terminal, cleaved
T3 sequence (looked up): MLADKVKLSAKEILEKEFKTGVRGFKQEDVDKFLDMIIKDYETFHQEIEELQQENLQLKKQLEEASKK

BsGpsB1-68 Asp31Ala [15] = target: T4, BsGpsB1-68 Asp31Ala (B. subtilis, UniProt P0CI74 1-68, Asp31Ala); assay: fluorescence polarisation; conditions: both partners purified
T4 construct: GpsB, Bacillus subtilis, residues 1-68 (N-terminal domain); also called BsGpsB1-68 D31A; source: E. coli BL21(DE3), purified (Ni-NTA, thrombin removal of the His6-tag, SEC); not shown: His6, N-terminal, cleaved
T4 sequence (looked up): T3 sequence (looked up) with F25Y, D31A

BsGpsB1-68 Tyr25Phe [16] = target: T3, BsGpsB1-68 Tyr25Phe; assay: fluorescence polarisation; GpsB protein titrated into TAMRA- or fluorescein-labelled peptide; 10 mM Tris.HCl pH 8.0, 250 mM NaCl, 0.1% reduced Triton X-100; all data fitted to a 1:1 interaction model, Kd ± standard error; conditions: both partners purified
BsGpsB1-68 Asp31Ala [17] = target: T4, BsGpsB1-68 Asp31Ala; assay: as above; conditions: both partners purified
[18] = target: Q10P-mutated LmPBPA1 peptide (taken as LmPBPA1_(1-20)^Gln10Pro) (L. monocytogenes EGD-e); assay: fluorescence polarisation
[19] = target: LmPBPA1_(1-20)^Tyr11Ala (L. monocytogenes EGD-e); assay: fluorescence polarisation
[20] = target: LmPBPA1_(1-20)^Arg8Ala,Ser16Arg (L. monocytogenes EGD-e); assay: fluorescence polarisation
[21] = target: LmPBPA1_(1-20)^Arg8Ala (L. monocytogenes EGD-e); assay: fluorescence polarisation
[22] = target: LmPBPA1_(1-20)^Arg12Ala (L. monocytogenes EGD-e); assay: fluorescence polarisation
[23] = target: T5, BsYpbE_(1-21), fluorescein-labelled (B. subtilis, UniProt P50731 1-21, fluorescein (position not given)); assay: fluorescence polarisation; conditions: both partners purified
T5 construct: also called 21-residue fragment of the cytoplasmic domain of BsYpbE; source: synthetic peptide
T5 peptide: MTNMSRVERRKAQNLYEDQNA

[24] = target: T6, BsPBP1_(1-32), TAMRA-labelled at position 16 (B. subtilis, UniProt P39793 1-32, Ser16Cys, TAMRA (maleimide) at position 16); assay: fluorescence polarisation; GpsB protein titrated into fluorescently labelled peptide; 10 mM Tris.HCl pH 8.0, 250 mM NaCl, 0.1% reduced Triton X-100; fit to a 1:1 interaction model; conditions: both partners purified
T6 construct: PBP1, Bacillus subtilis, residues 1-32; also called BsPBPA1_(1-32); BsPBP1A_(1-32); source: E. coli, His-tagged MBP fusion purified (Ni-NTA), labelled, TEV-cleaved, ultrafiltration
T6 peptide (looked up): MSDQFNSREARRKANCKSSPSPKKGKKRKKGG

[25] = target: T7, BsYrrS_(1-18), fluorescein-labelled (B. subtilis, UniProt O32031 1-18, also: fluorescein label, position not given here); assay: as above; conditions: both partners purified
T7 construct: YrrS, Bacillus subtilis, residues 1-18; also called entire cytoplasmic mini-domain of BsYrrS
T7 peptide (looked up): MSNNQSRYENRDKRRKAN

BsGpsB [26] = target: T8, BsGpsB (B. subtilis, UniProt P0CI74 1-98); assay: fluorescence polarisation; GpsB protein titrated into TAMRA- or fluorescein-labelled peptide; 10 mM Tris.HCl pH 8.0, 250 mM NaCl, 0.1% reduced Triton X-100; all data fitted to a 1:1 interaction model, Kd ± standard error; conditions: both partners purified
T8 construct: GpsB, Bacillus subtilis, full-length protein; purification not described here; also called full-length B. subtilis GpsB
T8 sequence (looked up): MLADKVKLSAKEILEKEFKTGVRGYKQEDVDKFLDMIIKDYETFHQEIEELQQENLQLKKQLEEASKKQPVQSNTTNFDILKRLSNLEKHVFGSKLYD

BsGpsB1-68 = target: T9, BsGpsB1-68 (B. subtilis, UniProt P0CI74 1-68); assay: as above; conditions: both partners purified
T9 construct: GpsB, Bacillus subtilis, residues 1-68 (N-terminal domain); also called N-terminal domain of B. subtilis GpsB; wildtype BsGpsB1-68; source: E. coli BL21(DE3), purified (Ni-NTA, thrombin removal of the His6-tag, SEC); not shown: His6, N-terminal, cleaved
T9 sequence (looked up): T3 sequence (looked up) with F25Y

BsGpsB1-68 Glu17Ala = target: T10, BsGpsB1-68 Glu17Ala (B. subtilis, UniProt P0CI74 1-68, Glu17Ala); assay: as above; conditions: both partners purified
T10 construct: GpsB, Bacillus subtilis, residues 1-68 (N-terminal domain); also called BsGpsB1-68 E17A; source: E. coli BL21(DE3), purified (Ni-NTA, thrombin removal of the His6-tag, SEC); not shown: His6, N-terminal, cleaved
T10 sequence (looked up): T3 sequence (looked up) with E17A, F25Y

BsGpsB1-68 Asp35Ala = target: T11, BsGpsB1-68 Asp35Ala (B. subtilis, UniProt P0CI74 1-68, Asp35Ala); assay: as above; conditions: both partners purified
T11 construct: GpsB, Bacillus subtilis, residues 1-68 (N-terminal domain); also called BsGpsB1-68 D35A; source: E. coli BL21(DE3), purified (Ni-NTA, thrombin removal of the His6-tag, SEC); not shown: His6, N-terminal, cleaved
T11 sequence (looked up): T3 sequence (looked up) with F25Y, D35A

“BsGpsB1-68 Lys32Glu (from UniProt P0CI74 1-68) (domain or fragment)” gave a Kd [1] greater than 2000 µM, a Kd [2] of 800 µM and a Kd [3] of 190 µM. It also gave a Kd [4] greater than 3000 µM.

In the case of SpGpsB1-63 (domain or fragment), the Kd [5] is reported as 360 µM, the Kd [6] is reported as 150 µM and the Kd [7] is reported as 210 µM. It also gave a Kd [8] of 530 µM, a Kd [9] of 370 µM and a Kd [10] greater than 2000 µM. For the same molecule, the Kd [11] was 270 µM.

In the case of “SpGpsB1-63 Asp33Ala (domain or fragment)”, the Kd [12] is reported as greater than 3000 µM.

B1: BsYpbE: B. subtilis YpbE, LysM-domain membrane protein (protein, UniProt P50731 1-240, looked up)
Uncharacterized protein YpbE: MTNMSRVERRKAQNLYEDQNAALADDYVDDGESLPTRQSVKNQREQKKKQGKTKTPLFTVLAVIFVFVPVIVLVTLFYLKSHPDNHDDYEDVFIDSSQSKYEVVPKSEDKNDTADTKETALQKESKKEPEDSKPKEQTAADKKQTAVAEKEDSPNKEEATAAAASSSQSTVQQQEQPAEPVQNVPNRVVKHTVQKKETLYRISMKYYKSRTGEEKIRAYNHLNGNDVYTGQVLDIPLMDE
With B1 the “BACTH interaction with BsGpsB” value (BsGpsB [13]) was “detected”.

B2: SpPBP2a_(23-45), TAMRA-labelled (peptide)
peptide: DSDSTILRRSRSDRKKLAQVCPI
modifications: also: TAMRA (maleimide) label, site not given here
notes: source: E. coli, His-tagged MBP fusion purified (Ni-NTA), labelled, TEV-cleaved, ultrafiltration
B2 showed a Kd (SpGpsB_(1-63)) of 80 µM.

B3: SpPBP2x_(1-29), fluorescently labelled (peptide)
peptide: GSGMKWTKRVIRYATKNRKSPAENRRRVGKSLCS
modifications: also: TAMRA or fluorescein maleimide label, which one and site not given here
notes: as for B2
B3: binds (SpGpsB_(1-63)).

fluorescein-[Nle]TN[Nle]SRVERRKAQNLYEDQNA [Fluoroescein-BsYpbE1-21] gave a Kd (BsGpsB1-68 Tyr25Phe [14]) greater than 500 µM and a Kd (BsGpsB1-68 Asp31Ala [15]) greater than 500 µM.

In the case of MSNNQSRYENRDKRRKAN-{C(fluorescein)} [Fluoroescein-BsYrrS1-18], the Kd (BsGpsB1-68 Tyr25Phe [16]) is reported as greater than 3000 µM and the Kd (BsGpsB1-68 Asp31Ala [17]) is reported as greater than 3000 µM.

B4: BsGpsB_(1-68)^Lys32Glu (domain or fragment)
chain: T3 sequence (looked up) with F25Y, K32E
In the case of B4, the fold reduction in affinity against wild type [18] is reported as greater than 7 fold, the fold reduction in affinity against wild type [19] is reported as 2 fold and the fold weaker affinity than wild type [20] is reported as greater than 10 fold. It also gave a fold reduction in affinity against wild type [21] greater than 15 fold and a fold reduction in affinity against wild type [22] of 4 fold.

B5: BsGpsB_(1-68)^Tyr25Phe (domain or fragment, B. subtilis, UniProt P0CI74 1-68, looked up)
chain: T3 sequence (looked up)
notes: GpsB, Bacillus subtilis, residues 1-68; the making of this mutant is not described in the methods; also called BsGpsB^Tyr25Phe; source: E. coli, purified (Ni-NTA, thrombin, size exclusion)
With B5 the “fold reduction in affinity against wild type” value (from here on “fold reduction in affinity”) [23] was roughly 40 fold, the “fold reduction in affinity” value [24] was greater than 8 fold and the “fold reduction in affinity” value [25] was 7 fold.

B6: BsGpsB_(1-68)^Asp31Ala (domain or fragment, B. subtilis, UniProt P0CI74 1-68, looked up)
chain: T3 sequence (looked up) with F25Y, D31A
notes: GpsB, Bacillus subtilis, residues 1-68; also called BsGpsB^Asp31Ala; source: E. coli, purified (Ni-NTA, thrombin, size exclusion)
B6 was tested, and the “fold reduction in affinity” value [23] was roughly 40 fold, the “fold reduction in affinity” value [24] was greater than 8 fold and the “fold reduction in affinity” value [25] was 7 fold.

B7: BsYrrS: B. subtilis YrrS (protein, UniProt O32031 1-233, looked up)
Uncharacterized membrane …: MSNNQSRYENRDKRRKANLVLNILIAIVSILIVVVAANLFINSPSSKDVSKDSETAQKQESPASGKTEKKSDEDIKDSKKDTSDSEKDSEKSSDSDSKKDDSSSKKDDSDSDSSSDSAGDGLKDAKVTEGGSSSDVEKTYENPDWKAVGTEQTGEHAATYDSSSQDWAEMLKAISYATGVSTDNMTVLWLGNNGSPQDAKGKILDKATGNKYQVTITWVDEKGWKPTKVEKLK
For B7, the “BACTH interaction with BsGpsB” value (BsGpsB [13]) was “detected”.

B8: TAMRA-BsPBP11-32 wildtype (peptide)
peptide: GSMADQFNSREARRKANC(TAMRA‑maleimide)KSSPSPKKGKKRKKGG
notes: PBP1 (ponA), Bacillus subtilis, residues 1-32, cytoplasmic mini-domain; also called TAMRA-labelled BsPBP1 1-32 (Ser16Cys); 16-labelled peptide
B8 showed a Kd (BsGpsB [26]) of 160 µM, a Kd (BsGpsB1-68) of 120 µM and a Kd (BsGpsB1-68 Tyr25Phe [16]) greater than 2000 µM. It also gave a Kd (BsGpsB1-68 Glu17Ala) greater than 1300 µM, a Kd (BsGpsB1-68 Asp35Ala) greater than 2000 µM and a Kd (BsGpsB1-68 Asp31Ala [17]) greater than 1900 µM.
